In the NTF2 design screens of Basanta et al. (2020):

Assay: protease stability score; higher = more stable; yeast display proteolysis, trypsin and chymotrypsin;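 further: log10 excess protease needed over predicted unfolded state with 0 meaning unfolded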

Sequence	protease stability score
EDEEAEEAIRIWQRNDPDQLNRMVDKDVSIHYGDKSYHGRHEVKKIWENYVKQVDRISFRHITRTGEHVSFEVEAVVNGKHVEFTASMEMKNGRAKDITFKATNEEDDKELQKNLE	0.28
DEEASKKIKTLVQILNTGDPDKAVKLFDPNARFQVGDKEISGREQFKEVLKKLKHKMRNDIKVKHVEVNNGHANAHAVMTVQVNGQPDHFTFIMRIQWHNGVIEHREVQMDEDELRRYNS	0.339
DEEHVDRVVKVLQHNDEEQFKRNAPPDARINIGDKQYRGREDAVEALSELWHRADHIRLHDITVRGNKIEMDMVFVVNGQHVRVVLDVEMRNGKVEQIDAHVTDEKDEENLQRAMD	0.393
DEDKHAKRVMENLTRAMNQGDKRRAADMVDPNVRLVIGDKEYHGRHQFRRAIKELVDRADHIEIDVRDVKTKNGRVQAHAHVEATYNGKKNDFKMVAEVEVQGENVVVHQITLK	1.13
DDEARKRIRTYWELYNQGNESKLEEMVDKDVRFEVGDKTIEGRRQVSTQLHREVREADVRVDIESIHVTGNKVDVEFRHSRDHNGQPETDQQRAEFNMDNGKIQSVVHRKDG	-0.204
DEDKEAREIAKKIARDLNRGNQEEVVKQFDPNVRLNIGDKEVTGREEVRKEVKKVQQKFDHADIRIRDYRSEGDSANLDFYLTLTHNGRHDKRRWTLHLENHNGRYIVKHVQHN	0.028
DDEEADKIVEELVKAMEHNDEKHFMELVDPNAKVRYGDTEYHGEDQIQTMFREIVEQADTVQVRSYRVENGEARVEANFRVNGRNAIVTMSATFHNGRVQSLRLHARDEEDRNKLDN	0.999
DEDAQKQVEKMLQAVREGDDRQIKRLFDPNAEINVGDKHVTGREQATKEMSKRKKEMDIDIKIEEVQVKGDRVELKAVVLENKNGDPQTFHVRAVYHAHNGKIRTNNVEKDG	-0.074
EQTFVHEFIKNVQRNNEHELKKLIDPNAKVVVGNKTFQGREQINSQLKRFKDQVDEFHVDTYHDKGDKAVIDYVRVVDGQRVHYRLIITAENGKVKSMELHVTDPEQQKTIERVLD	1.33
EEEAHTHAEQWFRVLQTGDEERAMKMVDKNAQLQIGDKDIHGREDVRKYVHDRKNEQDVEIKRYSIEVSGNSFNVKIHVRMEHNGQPRTDVLDMKFEVSNGRLTKVSVQSNG	0.021
DEDTIRKVNRSFLEAVQHNDDDTLRRLLDEDAHAQYGDKTVHGKTEVVKMILTFVEQVDSLDYKSITATGDHVDVKVDAKHNGRTLDVRIIMRIENGRFTHVQFDIR	0.075
DQEEAEKVMKQWMEAVQKGDEDTVRKLYDPNVEWINADTKEQDVEQFRKAIKKAKDKGVEFQVRKAKVEGDRVQMHYDVRIGNETVTFTVEMDVQGGKVEWLRVKVDEKARKALTKG	1.22
DEERMHRLKKLFDTNDNEQMSKQASENARMQVGNKVFHGREDIEKFILEERRRADHITYKHVTEHGNKVQAHVVKVVNGRSIDVIFEVEIDNGRIKRMSIQARDSEDQNKAEKALS	0.345
DEERQHRVAKSLVDILKDGNPRKMKELMDKDATVRVGDKNIRGRKNIATFWTDVRRRIDHVEIKHVDVRGDKIDMNINFDVNGRHVHYTINARVRNGKLTSMHLDPDNLEHLKE	0.591
DEEEQQKNAETADRNVKTGNWEEIKKMVDKDARVKIGDTTLHGREDVSREFKRWREDADHVEMKRVSASNGRAVVEVEYTVNGRKKKFTMIMEMHNGRIKHFRNERS	0.251
DEELLKELLKYLKVREHGDKDKFERMADPNAKIHVGDREVHGREHLAKEIKTEKEEMEVSVDRYTQRVNGDKARLKVDFKVEHNGKPERRAHVLVMHTHNGKIKSLKAQDTD	-0.111
DDDRVETVAQELAEAIMENDEDRAREMVDPNARIVYGEKDLHGREAFHTVMQLFQHRVDRVDLETVSVHNGRVKFEAVLKHNGTEHRVVFIVDAHNGKAKQVEVRDQ	0.862
DPTKVDHVARRVLEYMVKGNAEEVRKMVKPNAEAQTGDQKYKGQDEIHKMVKTLKDYGIEVKRDEVRVDGGHAQLKIRANIGDRTYTARWQVEAKDGKVDRIQMDISEDLKKAIKHG	-0.022
DETRMRELDKVFHHNDPDKMRENLDENVRMVVGDKSFTGRHQVQDWLKIFHDQVDHFEVESLTKEGNKIDVVYRAVVNGQEFRMRVDITVHNGRIKMIKVDFTNEDETRQFLEHIK	1.55
DEENRKILSEVLQALQEGDEHRVRELMDPNARFQVGDKVITGMDNIKKHLQELKRQIKWHFTMKSISAHDGQARATADAEYNHNGRPQDVRVTFRVVFHNGEVHHFSYDYKP	0.583
DEDANRKAREYAHAREHGDPRHAREYADPNAEFTVGDKSFHGMQEDVERMERERKEMRVEIKDVQVSAHDGRLTLDLRFVKDNNGQPREVRQNVQFNIENGRATEIDVQETK	-0.214
DEELVDQVKSFIELLQKGNEDELMKQLDEDAKIHYGDKTIHGREQVREWVKRFKDEMRQKIDSVQFREKPNRVSMKADMSYTQNGTPHDQQIDATFRAHNGRIKQVNIQLTK	-0.084
DHEEVKEFNKTLIKILETNDSKKLHELMDPNARIQIGDKDVSGRHNIHKLAEENKRRVDHFRVSRIDYHNGKVRADFTYVVNGQKHRVDMDIDITNGKIKRIIYHQR	0.011
DEHAARVQHEIQKVQETGDEERVRELVDPNVKIQVGDKTIHGMDEYLTRVKKRMDELRFSVTWRHYDVHNGQVNVKVEFTKDHNGKPQRDVMVMKFHIHNGRVQFLSMEKDQ	0.843
DEDRARRLMEKMFKIILNGNDEEARKMGAPDVEYQYADKTFHGEEAMKYIVKVVKRVGVKVRQEKHEVHGDTATAHFQYENGDTTVETQAHVQYEGDKAKKVEVKNSDEVRKLVDQG	0.228

Sequence	protease stability score
DDRNKHIFKKIIEAERTGDEDKLRQNFDPNARFRIGNQTYHGREHWADRVSDLRKKIRVEIKIKRVQVDGDKVVVKYQVVYNVNGRPKKDTFRVVLHFQNGKAKHRTFQIDEERKEHLDS	0.252
DDRVLHEMVKVMETGDFEKFARLADPNATIEYGDKKIHGREDAEKFATKIKQRVDHVQIKTYSVKGDSARIHFELNVNGSRIDMVLVLQVKNGRLRRASFEFRDREDSKEFVKRVH	0.068
DENENEEFARKFLENLRTGDPDKVMELVDPNAHVTIGDKEIKGRDQVKRWVEEHKRRADHLDVRDMSVDGEKITARIVVNINGENKYQKVEISIHNGHMTHMSVHDE	1.12
DEENVDRAERLLDALRSGNPNTVRELMDKHVKIQIGDKHLHGREQADKKAEDDSKEINEEVKSVDVKATGNNVVIDMDVSATVDGRPVTFHRVLVIRMHNGKIQEIEIRMSEDDIRNYKK	0.207
DKDAAQLFHQYLEAKKHNNEDQLRENMDPNVQWTIGDKVITGREEAAKRMVDENREQRVEISHMQVHDNNGHAVFRADVRYKHNGKPSRSRFVVRVQARNGKIHSVKVERHS	0.076
DEEEIHTMLEVLKQNDEQTLQDLFDENAKISVGEFRFHGRDEAIEFAREFNKAVDHVHYKRVDVQGNRARVKMQLNVNGKNIDVVVKVEIHNGRIKSLRIDVRDEQLRRDLEEAFR	1.71
DERIRKEHTKRLKAEQTGDPKSAHDMADENVRVKVGDKDLTGMDNIVKTIHEEKKDQRNQLDVHSIELHGEKVKIEMQVVIEHNGRPHKTEQYLVFRADNGKLKRMEQHDSG	0.023
DEEVANTAVKVAQTGDFQQMVEHADPNVRAVVGDKEYHGREQFQEAMTIIRERVDHYHVDKITIEGDDVRVDMQIDFNGRRVRAEVSIRASNGRIKEMHINARDEDDHRTLRKLLK	0.432
EEDNRKHAEDIWRAIRKGDEERLKQLFDKDVKFHVGEKEIHGRENYARSVKERREEIKWSVTLDDVHVRGEKIVIRYTFTENNNGRPRHNVQVLEMTVTNGRVVNVDAKDDK	-0.148
DEETKAREFIKKVQNVMRTNNPEDFVKQFDPNARMVVGDKSYHGRDDVRKWAQDLFRRADHVSMSVKRLSVHNGRFHMQADLEVHVNGHREEVKVVMNAKDENGQILIKHARFE	1.77
DQTALKVFKEYLEVVLNGDEHEAVELVDKDVRMNVGDKRWHGQEHIEREIRNQTRHSRLDYDHVRFEDDGDKAVFKRTVRFTHNGKPDSSRNVMHATADNGRIKSMKVEDDR	-0.334
DTEDLNRLANTMASAIHHNDPDKIVKMFDPNARARVGDKSYHGREDLRKMVNEWHRQADDIHIQQVQVHNGRAYINFVRNVNGVHADLTAIITIENGRAEKMTLTYRNPDDEKKVQG	0.279
DEKLEKLVDEFIEAEHTNNPEELKKLIDPNARFRIGDKDVHGREEWNEDMKRINDELRIEVHIKHVDARGDHVDIEMEFTFNVNGRPVNQTAKQQIKFENGRMKRVVNNVSEDQVEQLHR	0.194
DEERADELVELLTNNNFQSLADNADPNASIEYGDKTIRGRDEANKFLQNIERRADHVEIKSLKTKGNKIDIDLVVHVNGQKLRFKVEIKLRNGKVTHIRIQATSERDQRKFLEVVG	1.06
DPKRTVKVAEEAAKILYNGDSDKAKKVFKPDLRVKIADRETQGVEQIVKELEKFQKIGVERETKEKRTEGDKVQFHTVYRNGSDQAKMTVEYQAKDGKVDRIQVDYDEKAKKIQEDG	-0.407
DESAAERFDEFMRNVDTNNEHKLKEYADPNAKVQYGDKVLHGMDQIIHDIRRYMEEMRVRVDFKRYDAQGNELSFVADYSAEYNGEPVNDNVTFHVEAHNGKLKDMKINFDPKKDQDRRG	0.355
DHKQEATKNLKKFEDVMKTNDPEKAKNLADENVRVQVGDKTVHGKEKMVSTMLEEMRKVDHFSVHLQEVSFHGDKLNLSYEFVLNQNGKERKDVRVFHAANHNGRFLVEELHQG	-0.322
DESKVNEIVQKFVNAVREGNENHLRSLMDKDVTLHVGDRTWHGREQVASFMAHVAKRVDRIRIVHIEIHGDKANVNVRFDVNGTEVQLTMDIRIKNGRIMKIHMSPEDEKKLQG	1.76
DDEQDRDFVQTMREAIDRGDFKKIARMADKDVKVVIGDKNVTGRETLTHLLKDFVDKFDHIRVRHIDAHNGSVDIDMTADHNGDKRQYRIRVNVSNGQVKEFQLKQT	0.453
DERNNKQADQFLRDMEKNDEHKLRKLADENVKFKIGDKVFRGWHDAVTEIATRIREMRVNVHRYDVKTHNGRVNLEIHQTAEYNGQPLNFSYIVIMEYQNGRLVRVNIRVSEEELKTMTQ	0.475
DEEAMKRFQELLDVLRTGDENRAKKLMDENVHLLVGDKEINGRDHAAKTMAQTYREMRIEYKTVKRDVTNGVVHVRMRYVKEHNGTPNDRVVLVEVRFHNGRLKVLNRNEKD	0.352
DEEAVEIAHEVNKALNENDEHRLRELFDPNAKIQYGDNVIKGSDNLVKDIRRKSKRMRVRFDVKSIDNQGDKVEIDANYRQTHDGEPRTRKVDAKLRVENGRIKHFSARFTP	-0.044
DEEEVERIAKKLWKIMETGDEDEARKMVPPDVQARVGDKHISGREQYAKWVREVVKRVDSFRIKSLDAKGDKVNIVFVVHHNGKVEQHHATLVFHNGKLVYRTVKTG	0.433
DDQDLAKRLLDQLTKALQHGDERQLQRLMDKDVRVHIGDKNIHGREQAATFWVHLRKHVDRLSVRVKHVDIQGERVVFDMVFVFNHNGRQEHVRVVIVAKKDGDKIRIKRASQN	2.16
DTRAREVLEKFLKALNKGDPDKMKRQADPNAKFHIGDKQVHGMDQMKEQIRTNQRHMKIDVQVQEVQVRNGRVVARMEVRQTHNGQPTSDILVVEAEVKNGRIKSAHWEKSS	-0.414
